The series relates to lacZ under control of the tetA promoter (PtetA) in E. coli KM3. It is filed as cell-based. Conditions: for relative β-galactosidase activity, inducer Ci: chlorimuron 20 ppm; for relative β-galactosidase activity, inducer Cs: chlorsulfuron 20 ppm; for relative β-galactosidase activity, inducer Ms: metsulfuron 20 ppm; for relative β-galactosidase activity, inducer Ns: nicosulfuron 20 ppm; for relative β-galactosidase activity, inducer Rs: rimsulfuron 20 ppm; for relative β-galactosidase activity, inducer Sm: sulfometuron 20 ppm; for relative β-galactosidase activity, inducer Ts: thifensulfuron 20 ppm; for relative β-galactosidase activity, inducer Tb: tribenuron 20 ppm; for inducer preference: Table 8, library L2 parents and hits; for activity on sulfonylurea inducers: first round hits, 20 ppm inducer (Table 4).

[1] abbreviates: Table 4, ethametsulfuron 20 ppm, 48 hrs at 30° C.

Read-outs that look alike come from different tables or passages of the source.

B1: L1-31: SU-responsive TetR(B) variant, library L1 hit (protein)
chain: MGSRLDKSKVINSALELLNEVGIEGLTTRKLAQKLGVEQPTLYWHVKNKRALLDALAIEMLDRHATHFCPLEGESWQDFLRNNAKSMRCALLSHRDGAKVMLGTRATEKQYETVENRLAFLCQQGFSLENALYAVRAVHWFTLGCVLIDQEMQVAKEERETPTTDSMPPLLRQAYELYDHQGAEPAFLFGLELIICGLEKQLKCESGS
modifications: Sulfonylurea responsive repressor L1-31
As to B1, where the note is “Table 4, 48 hrs at 30° C.”, the “relative β-galactosidase activity, inducer Ci” value is given as 1.1; the “relative β-galactosidase activity, inducer Cs” value is 1.4; the “relative β-galactosidase activity, inducer Ms” value is recorded as 0.5; the “relative β-galactosidase activity, inducer Ns” value stood at 0.5. Under “Table 4, 48 hrs at 30° C.”, the “relative β-galactosidase activity, inducer Rs” value came out at 0.4; the “relative β-galactosidase activity, inducer Sm” value turned out to be 0.9; the “relative β-galactosidase activity, inducer Ts” value turned out to be 0.9; the “relative β-galactosidase activity, inducer Tb” value was 0.1. Moreover, under setting [1], the “relative β-galactosidase activity, inducer Es” value was 13.7.

B2: L1-29: SU-responsive TetR(B) variant, library L1 hit, SEQ ID NO: 10 (protein)
chain: MGSRLDKSKVINSALELLNEVGIEGLTTRKLAQKLGVEQPTLYWHVKNKRALLDALAIEMMDRHQTHFCPLEGESWQDFLRNTAKSMRCALLSHRDGAKVWLGTRWTEKQYETPENMLAFLCQQGFSLENALYAWSAVCNFTLGCVLSDQERQVAKEERETPTTDSMPPLLRQAWELSDHQGAEPAFLFGLELIICGLEKQLKCESGS
modifications: Sulfonylurea responsive repressor L1-29
On to B2, for which the inducer preference is on record as 9 (weak) and the “activity on sulfonylurea inducers” value was “moderate metsulfuron activity”. Also, where the note is “Table 4, 48 hrs at 30° C.”, the “relative β-galactosidase activity, inducer Ci” value was 20.9; the “relative β-galactosidase activity, inducer Cs” value is recorded as 15.8; the “relative β-galactosidase activity, inducer Ms” value is on record as 13.5; the “relative β-galactosidase activity, inducer Ns” value amounted to 0.1. Moreover, where the note is “Table 4, 48 hrs at 30° C.”, the “relative β-galactosidase activity, inducer Rs” value came to 0.1; the “relative β-galactosidase activity, inducer Sm” value is reported as 2.7; the “relative β-galactosidase activity, inducer Ts” value is listed as 0.0; the “relative β-galactosidase activity, inducer Tb” value is 0.3. Also, the “relative β-galactosidase activity, inducer Es” value under setting [1] stood at 1.7. Further, the “relative β-galactosidase activity, No inducer” value (Table 10, 48 hours at 30° C.) turned out to be 0.1.

B3: L1-9: SU-responsive TetR(B) variant, library L1 hit (protein)
chain: MGSRLDKSKVINSALELLNEVGIEGLTTRKLAQKLGVEQPTLYWHVKNKRALLDALAIEMLDRHATHFCPLEGESWQDFLRNNAKSMRCALLSHRDGAKVCLGTGFTEKQYETAENSLAFLCQQGFSLENALYAMQAVCIFTLGCVLLDQELQVAKEERETPTTDSMPPLLRQALELKDHQGAEPAFLFGLELIICGLEKQLKCESGS
modifications: Sulfonylurea responsive repressor L1-09
For B3, the inducer preference is on record as 4, 9 (weak); the “activity on sulfonylurea inducers” value is “strong activity on both ethametsulfuron and chlorsulfuron”. Under “Table 4, 48 hrs at 30° C.”, the “relative β-galactosidase activity, inducer Ci” value was 9.8; the “relative β-galactosidase activity, inducer Cs” value worked out at 23.6; the “relative β-galactosidase activity, inducer Ms” value stood at 1.2; the “relative β-galactosidase activity, inducer Ns” value is on record as 0.3. Moreover, under “Table 4, 48 hrs at 30° C.”, the “relative β-galactosidase activity, inducer Rs” value worked out at 0.4; the “relative β-galactosidase activity, inducer Sm” value worked out at 0.6; the “relative β-galactosidase activity, inducer Ts” value was 1.1; the “relative β-galactosidase activity, inducer Tb” value is recorded as 0.4. In addition, under setting [1], the “relative β-galactosidase activity, inducer Es” value was 11.8. The “relative β-galactosidase activity, No inducer” value (Table 10, 48 hours at 30° C.) is 0.9. Also, the “relative β-galactosidase activity, inducer Es” value (Table 10, ethametsulfuron 2 ppm, 48 hours at 30° C.) came to 14.8. For the same molecule, where the note is “library L2 retest, inducers at 2 ppm”, the “induction response and background” value is reported as “sensitivity to 2 ppm Es”.

B4: L1-24: SU-responsive TetR(B) variant, library L1 hit (protein)
chain: MGSRLDKSKVINSALELLNEVGIEGLTTRKLAQKLGVEQPTLYWHVKNKRALLDALAIEMLDRHNTHFCPLEGESWQDFLRNSAKSMRCALLSHRDGAKVLLGTAVTEKQYETTENSLAFLCQQGFSLENALYAIRAVRTFTLGCVLVDQERQVAKEERETPTTDSMPPLLRQAKELLDHQGAEPAFLFGLELIICGLEKQLKCESGS
modifications: Sulfonylurea responsive repressor L1-24
For B4, where the note is “Table 4, 48 hrs at 30° C.”, the “relative β-galactosidase activity, inducer Ci” value is reported as 22.1; the “relative β-galactosidase activity, inducer Cs” value was 3.3; the “relative β-galactosidase activity, inducer Ms” value came out at 0.4; the “relative β-galactosidase activity, inducer Ns” value is on record as 0.3. Moreover, under “Table 4, 48 hrs at 30° C.”, the “relative β-galactosidase activity, inducer Rs” value turned out to be 0.3; the “relative β-galactosidase activity, inducer Sm” value is 3.1; the “relative β-galactosidase activity, inducer Ts” value came to 0.3; the “relative β-galactosidase activity, inducer Tb” value was 1.6. In addition, under setting [1], the “relative β-galactosidase activity, inducer Es” value is reported as 0.2.

B5: L1-38: SU-responsive TetR(B) variant, library L1 hit (protein)
chain: MGSRLDKSKVINSALELLNEVGIEGLTTRKLAQKLGVEQPTLYWHVKNKRALLDALAIEMADRHHTHFCPLEGESWQDFLRNNAKSMRCALLSHRDGAKVWLGTAWTEKQYETTENMLAFLCQQGFSLENALYAWRAVTMFTLGCVLRDQEWQVAKEERETPTTDSMPPLLRQALELGDHQGAEPAFLFGLELIICGLEKQLKCESGS
modifications: Sulfonylurea responsive repressor L1-38
Turning to B5, for the setting “Table 4, 48 hrs at 30° C.”, the “relative β-galactosidase activity, inducer Ci” value was 15.3; the “relative β-galactosidase activity, inducer Cs” value is recorded as 14.0; the “relative β-galactosidase activity, inducer Ms” value came out at 14.7; the “relative β-galactosidase activity, inducer Ns” value is listed as 8.7. Moreover, for the setting “Table 4, 48 hrs at 30° C.”, the “relative β-galactosidase activity, inducer Rs” value turned out to be 9.5; the “relative β-galactosidase activity, inducer Sm” value came out at 18.3; the “relative β-galactosidase activity, inducer Ts” value is 16.7; the “relative β-galactosidase activity, inducer Tb” value was 15.8. Under setting [1], the “relative β-galactosidase activity, inducer Es” value is on record as 14.8.

B6: L1-28: SU-responsive TetR(B) variant, library L1 hit (protein)
chain: MGSRLDKSKVINSALELLNEVGIEGLTTRKLAQKLGVEQPTLYWHVKNKRALLDALAIEMLDRHATHFCPLEGESWQDFLRNNAKSMRCALLSHRDGAKVWLGTAWTEKQYETPENVLAFLCQQGFSLENALYASRAVVTFTLGCVLTDQEKQVAKEERETPTTDSMPPLLRQAWELLDHQGAEPAFLFGLELIICGLEKQLKCESGS
modifications: Sulfonylurea responsive repressor L1-28
As to B6, under “Table 4, 48 hrs at 30° C.”, the “relative β-galactosidase activity, inducer Ci” value is reported as 14.6; the “relative β-galactosidase activity, inducer Cs” value was determined as 5.8; the “relative β-galactosidase activity, inducer Ms” value is listed as 18.8; the “relative β-galactosidase activity, inducer Ns” value is reported as 0.1. Further, where the note is “Table 4, 48 hrs at 30° C.”, the “relative β-galactosidase activity, inducer Rs” value is recorded as 0.2; the “relative β-galactosidase activity, inducer Sm” value is 1.1; the “relative β-galactosidase activity, inducer Ts” value is listed as 0.1; the “relative β-galactosidase activity, inducer Tb” value was found to be 0.3. In addition, the “relative β-galactosidase activity, inducer Es” value under setting [1] amounted to 0.8.

B7: L1-22: SU-responsive TetR(B) variant, library L1 hit, SEQ ID NO: 7 (protein)
chain: MGSRLDKSKVINSALELLNEVGIEGLTTRKLAQKLGVEQPTLYWHVKNKRALLDALAIEMMDRHHTHFCPLEGESWQDFLRNTAKSYRCALLSHRDGAKVCLGTAITEKQYETKENNLAFLCQQGFSLENALYARQAVRVFTLGCVLFDQEMQVAKEERETPTTDSMPPLLRQASELLDHQGAEPAFLFGLELIICGLEKQLKSESGS
modifications: Sulfornylurea responsive repressor L1-22
With B7, the inducer preference came out at 3 and the “activity on sulfonylurea inducers” value is on record as “strong sulfometuron activity”. Besides, under “Table 4, 48 hrs at 30° C.”, the “relative β-galactosidase activity, inducer Ci” value was determined as 10.4; the “relative β-galactosidase activity, inducer Cs” value is given as 0.2; the “relative β-galactosidase activity, inducer Ms” value was determined as 0.1; the “relative β-galactosidase activity, inducer Ns” value is 0.2. For the same molecule, under “Table 4, 48 hrs at 30° C.”, the “relative β-galactosidase activity, inducer Rs” value is reported as 0.1; the “relative β-galactosidase activity, inducer Sm” value was found to be 17.2; the “relative β-galactosidase activity, inducer Ts” value is listed as 0.0; the “relative β-galactosidase activity, inducer Tb” value was 0.3. Besides, the “relative β-galactosidase activity, inducer Es” value under setting [1] was 0.3. Under “Table 10, 48 hours at 30° C.”, the “relative β-galactosidase activity, No inducer” value is recorded as 0.2.

B8: L1-44: SU-responsive TetR(B) variant, library L1 hit, SEQ ID NO: 13 (protein)
chain: MGSRLDKSKVINSALELLNEVGIEGLTTRKLAQKLGVEQPTLYWHVKNKRALLDALAIEMLDRHATHFCPLEGESWQDFLRNNAKSYRCALLSHRDGAKVYLGTAVTEKQYETAENQLAFLCQQGFSLENALYAVKAVAGFTLGCVLWDQESQVAKEERETPTTASMPPLLRQAVELADHQGAEPAFLFGLELIICGLEKQLKCESGS
modifications: Sulfonylurea responsive repressor L1-44
For the molecule B8, the inducer preference is on record as 9 (weak); the “activity on sulfonylurea inducers” value is “moderate activity on metsulfuron, ethametsulfuron and chlorsulfuron”. Further, under “Table 4, 48 hrs at 30° C.”, the “relative β-galactosidase activity, inducer Ci” value is reported as 6.7; the “relative β-galactosidase activity, inducer Cs” value amounted to 12.0; the “relative β-galactosidase activity, inducer Ms” value amounted to 2.9; the “relative β-galactosidase activity, inducer Ns” value was determined as 0.4. Besides, where the note is “Table 4, 48 hrs at 30° C.”, the “relative β-galactosidase activity, inducer Rs” value is 0.3; the “relative β-galactosidase activity, inducer Sm” value was 0.4; the “relative β-galactosidase activity, inducer Ts” value is recorded as 1.9; the “relative β-galactosidase activity, inducer Tb” value was 0.4. Under setting [1], the “relative β-galactosidase activity, inducer Es” value is given as 2.4. Besides, the “relative β-galactosidase activity, No inducer” value (Table 10, 48 hours at 30° C.) is listed as 0.6.
